Reference: the supplement of paper PMC9876800

Test system: peptide library, one residue held at a place counted from the S/T acceptor
Assay: relative phosphorylation of the sub-library (ratio to the mean residue at this position); higher = residue favoured
Details: human
Summary of the method: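 Each biotinylated degenerate peptide sub-library fixed one residue at one position around a central Ser/Thr and was incubated with a purified recombinant kinase, a human or orthologue construct, in 384-well plates. The 90 min reactions, under kinase-specific conditions, contained 50 μM peptide and 50 μM ATP spiked with γ-32P-ATP. Phosphorylation was read by phosphorimaging spots on streptavidin membranes and quantifying them by densitometry. Relative sub-library phosphorylation expresses each value as a ratio to the mean residue at that position.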

CDK13, construct: aa694-1039, sequence (Q14004 694-1039, looked up): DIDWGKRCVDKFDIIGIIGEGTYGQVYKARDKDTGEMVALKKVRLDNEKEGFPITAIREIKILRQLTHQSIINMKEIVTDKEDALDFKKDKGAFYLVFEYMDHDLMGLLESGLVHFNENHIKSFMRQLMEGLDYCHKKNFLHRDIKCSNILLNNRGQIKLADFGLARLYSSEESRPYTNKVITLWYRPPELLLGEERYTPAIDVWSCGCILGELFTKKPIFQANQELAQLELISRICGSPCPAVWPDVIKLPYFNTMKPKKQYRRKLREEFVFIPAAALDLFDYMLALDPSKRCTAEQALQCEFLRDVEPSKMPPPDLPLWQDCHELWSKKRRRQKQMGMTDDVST
CDK3, construct: Full length, sequence (Q00526 whole entry, looked up): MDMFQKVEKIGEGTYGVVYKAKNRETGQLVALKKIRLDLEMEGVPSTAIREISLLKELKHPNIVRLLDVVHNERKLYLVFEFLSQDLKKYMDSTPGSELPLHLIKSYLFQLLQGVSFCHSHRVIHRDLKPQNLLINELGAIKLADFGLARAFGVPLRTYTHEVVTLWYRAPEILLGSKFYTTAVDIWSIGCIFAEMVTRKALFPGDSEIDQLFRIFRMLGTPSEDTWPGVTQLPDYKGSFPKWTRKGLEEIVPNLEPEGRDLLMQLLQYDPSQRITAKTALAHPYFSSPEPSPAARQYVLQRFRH
CDK14, construct: Full length, sequence (O94921 whole entry, looked up): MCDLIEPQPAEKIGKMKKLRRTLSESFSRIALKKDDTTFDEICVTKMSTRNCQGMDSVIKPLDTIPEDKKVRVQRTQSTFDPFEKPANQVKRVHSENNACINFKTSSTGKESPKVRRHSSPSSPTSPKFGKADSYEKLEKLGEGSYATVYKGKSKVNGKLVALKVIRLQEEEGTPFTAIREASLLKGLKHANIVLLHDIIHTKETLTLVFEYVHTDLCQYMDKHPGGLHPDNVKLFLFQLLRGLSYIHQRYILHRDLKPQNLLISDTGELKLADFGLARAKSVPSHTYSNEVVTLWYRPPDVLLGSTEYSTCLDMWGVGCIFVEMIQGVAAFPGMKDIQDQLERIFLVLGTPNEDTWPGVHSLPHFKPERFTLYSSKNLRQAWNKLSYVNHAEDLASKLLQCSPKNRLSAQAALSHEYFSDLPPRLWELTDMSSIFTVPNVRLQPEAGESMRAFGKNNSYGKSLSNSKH
CAMKK2, construct: Full length, sequence (Q96RR4 whole entry, looked up): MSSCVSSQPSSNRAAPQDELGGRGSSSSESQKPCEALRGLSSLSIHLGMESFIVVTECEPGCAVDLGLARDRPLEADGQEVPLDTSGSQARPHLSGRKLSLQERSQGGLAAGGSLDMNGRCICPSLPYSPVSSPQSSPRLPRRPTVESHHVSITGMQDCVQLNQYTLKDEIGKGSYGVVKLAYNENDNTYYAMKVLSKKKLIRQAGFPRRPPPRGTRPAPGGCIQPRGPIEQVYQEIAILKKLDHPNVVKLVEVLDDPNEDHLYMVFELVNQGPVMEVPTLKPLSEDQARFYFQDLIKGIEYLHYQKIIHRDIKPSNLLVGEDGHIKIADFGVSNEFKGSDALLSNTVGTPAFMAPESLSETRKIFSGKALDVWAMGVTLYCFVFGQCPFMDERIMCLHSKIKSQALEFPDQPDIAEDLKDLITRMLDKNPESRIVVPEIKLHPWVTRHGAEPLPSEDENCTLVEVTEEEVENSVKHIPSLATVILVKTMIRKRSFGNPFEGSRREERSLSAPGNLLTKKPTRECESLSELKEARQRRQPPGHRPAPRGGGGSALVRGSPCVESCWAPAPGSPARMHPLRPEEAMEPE

CAMKK2, construct: Full length (from UniProt Q96RR4)
relative phosphorylation
Details	at +1	at +2	at +3	at +4	at -1	at -2	at -3	at -4	at -5
A fixed	1.16	0.999	0.931	0.783	1.27	0.476	1.17	0.993	1.31
D fixed	0.612	1.03	1.09	1.14	1.17	0.349	0.289	0.949	1.02
E fixed	0.647	0.701	0.995	0.774	1.24	0.313	0.317	0.905	0.843
F fixed	0.787	0.602	0.861	1.12	0.671	1.91	1.44	0.939	0.93
G fixed	0.848	1.24	1.36	1.09	0.731	0.434	0.846	1.11	1.29
H fixed	0.46	1.21	0.888	1.1	0.934	0.748	1.23	1.15	1.09
I fixed	1.27	0.734	0.702	0.589	0.46	0.558	0.672	0.481	0.529
K fixed	1.03	1.04	0.971	1.18	1.6	0.629	0.567	0.887	1.02
L fixed	1.1	0.786	0.783	0.953	0.974	2.57	0.981	0.762	0.561
M fixed	1.92	1.14	0.834	0.979	1.2	2.46	1.65	1.04	0.887
N fixed	1.02	1.4	1.22	0.991	1.15	0.594	0.66	0.95	0.917
P fixed	0.328	1.26	1.61	1.64	0.268	0.363	1.48	0.931	1.29
Q fixed	1.07	0.937	1.05	1.09	1.6	0.727	1.09	1.05	1.08
R fixed	1.18	1.32	1.04	0.852	1.65	0.885	0.856	1.11	1.21
V fixed	1.19	0.93	0.706	0.884	0.601	0.548	0.953	0.583	0.753
W fixed	1.22	0.742	0.971	0.981	0.693	0.873	1.48	1.79	1.25
Y fixed	1.18	0.927	0.988	0.861	0.786	2.56	1.32	1.37	1.02
pThr fixed	0.769	0.87	1.03	1.14	0.432	0.493	0.711	0.711	0.884
pTyr fixed	0.827	0.75	1.43	1.09	0.973	0.634	0.525	0.831	0.776

CDK3, construct: Full length (from UniProt Q00526)
relative phosphorylation
Details	at +1	at +2	at +3	at +4	at -1	at -2	at -3	at -4	at -5
A fixed	0.28	1.2	0.418	1.14	1.12	1.17	1.14	1.23	1.11
D fixed	0.17	0.658	0.277	0.882	0.844	0.837	0.997	1.07	1.31
E fixed	0.172	0.626	0.25	0.783	0.718	0.938	0.839	1.29	1.06
F fixed	0.14	0.857	0.261	0.778	0.703	0.855	0.746	0.8	0.944
G fixed	0.912	0.851	0.612	1.43	1.72	1.28	1.83	1.49	1.37
H fixed	0.177	1.06	0.699	1.06	0.778	0.981	0.984	0.966	0.993
I fixed	0.156	0.775	0.261	0.697	0.343	0.691	0.618	0.589	0.656
K fixed	0.214	2	9.66	1.99	1.58	0.753	0.978	1.1	1.06
L fixed	0.156	0.891	0.266	0.736	0.741	0.957	0.777	0.709	0.629
M fixed	0.167	0.98	0.284	0.962	0.969	0.889	0.766	0.957	0.695
N fixed	0.193	1.05	0.405	0.988	1.1	0.909	1.06	0.938	0.887
P fixed	13.3	0.682	0.644	1.04	1.87	2.78	2.04	1.54	1.51
Q fixed	0.212	1.29	0.401	0.933	1.17	0.825	0.943	0.836	0.915
R fixed	0.2	1.9	1.69	1.1	1.48	0.835	1	1.01	1.12
V fixed	0.216	0.851	0.302	0.682	0.453	0.688	0.654	0.602	0.832
W fixed	0.155	0.653	0.277	1.05	0.613	0.867	0.807	0.969	1.01
Y fixed	0.142	0.664	0.288	0.741	0.793	0.744	0.814	0.891	0.895
pThr fixed	0.523	0.933	0.86	0.685	0.434	0.731	0.886	1	1.24
pTyr fixed	0.633	0.538	0.927	0.718	0.48	0.698	0.853	0.982	0.947

CDK13, construct: aa694-1039 (from UniProt Q14004)
relative phosphorylation
Details	at +1	at +2	at +3	at +4	at -1	at -2	at -3	at -4	at -5
A fixed	0.344	0.946	0.818	0.867	1.13	1.18	1.03	1.07	1.13
D fixed	0.22	0.631	0.449	1.07	0.485	0.477	0.742	0.927	0.951
E fixed	0.222	0.569	0.42	0.973	0.492	0.515	0.76	0.983	0.817
F fixed	0.319	1.03	0.579	0.816	0.876	0.712	0.85	1.17	1.23
G fixed	0.908	1.27	0.797	1.33	1.45	1.77	2.11	1.16	0.982
H fixed	0.301	1.17	1.71	1.44	0.893	0.831	0.889	1.02	1.1
I fixed	0.293	0.835	0.822	0.746	0.382	0.933	0.995	0.868	0.933
K fixed	0.307	1.31	0.993	0.893	1.12	0.542	0.581	0.846	0.837
L fixed	0.348	0.845	0.558	0.743	0.845	1.03	0.922	0.953	0.923
M fixed	0.336	1.11	0.506	0.824	1.64	1.31	0.965	1.01	0.855
N fixed	0.305	1.02	0.739	1.01	0.968	0.685	0.696	0.889	0.784
P fixed	11.6	0.82	1.41	0.98	1.02	1.71	1.44	1.15	1.17
Q fixed	0.287	0.8	0.764	0.903	1.18	0.736	0.672	0.753	0.933
R fixed	0.315	1.7	4.1	0.956	1.68	1.16	1.2	0.861	0.898
V fixed	0.315	0.812	0.717	0.779	0.511	0.942	0.877	0.825	0.929
W fixed	0.306	0.937	0.82	1.59	1.23	1.43	1.07	1.4	1.24
Y fixed	0.306	1.2	0.801	1.09	1.09	1.03	1.2	1.11	1.27
pThr fixed	0.386	0.581	0.553	1.13	0.349	0.479	0.922	0.831	1.02
pTyr fixed	0.405	0.576	0.702	1.27	1.16	0.698	0.88	0.961	0.865

CDK14, construct: Full length (from UniProt O94921)
relative phosphorylation
Details	at +1	at +2	at +3	at +4	at -1	at -2	at -3	at -4	at -5
A fixed	0.252	0.535	0.827	0.626	0.896	0.722	0.989	0.958	0.859
D fixed	0.129	0.365	0.343	0.472	0.376	0.251	0.328	0.625	0.582
E fixed	0.123	0.292	0.266	0.344	0.366	0.258	0.438	0.592	0.521
F fixed	0.298	0.793	1.44	0.708	0.704	0.777	0.768	0.725	0.798
G fixed	1.29	0.619	0.785	1.64	2.02	0.774	1.29	1.08	1.13
H fixed	0.294	1.19	0.793	1.08	0.835	0.972	0.974	0.978	1.34
I fixed	0.332	1.25	1.03	0.677	0.324	0.749	0.879	1.39	1.22
K fixed	0.38	2	0.937	1.84	1.44	1.14	1.09	1.59	1.78
L fixed	0.392	1.39	2.38	0.74	1.04	1.29	0.839	1.2	1.23
M fixed	0.345	1.1	1.97	0.88	1.36	1.11	0.875	0.942	1.06
N fixed	0.247	0.858	0.6	1.04	0.873	0.701	0.75	1.19	1.15
P fixed	11.4	0.665	1.28	1.07	1.77	2.49	1.43	1.01	0.957
Q fixed	0.286	0.854	0.772	0.935	0.863	0.794	0.756	0.843	0.822
R fixed	0.377	2.41	1.02	2.69	1.92	2.6	3	1.31	1.17
V fixed	0.305	1.05	0.764	0.582	0.421	0.724	0.753	0.717	0.71
W fixed	0.301	0.713	1.09	0.962	0.802	0.995	0.955	1.06	0.823
Y fixed	0.257	0.92	0.698	0.714	0.984	0.648	0.884	0.78	0.865
pThr fixed	0.511	0.842	0.801	0.524	0.457	0.755	0.839	0.879	0.885
pTyr fixed	0.609	0.486	0.841	0.387	0.427	0.42	0.605	0.531	0.697
